Data set [1] deals with T1, HUαβ (Escherichia coli, UniProt P0ACF0;P0ACF4 1-90;1-90). In words: ITC. For orientation: Isothermal titration calorimetry measures the heat released or taken up as one component is titrated into another.
In data set [2] the target is T1, HUαβ. In words: ITC. This is another data set of the same source.

T1 sequence (P0ACF0 whole entry, chain 1 of 2): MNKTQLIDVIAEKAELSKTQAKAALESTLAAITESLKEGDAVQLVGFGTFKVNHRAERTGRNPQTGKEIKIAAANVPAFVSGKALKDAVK
T1 sequence (P0ACF4 whole entry, chain 2 of 2): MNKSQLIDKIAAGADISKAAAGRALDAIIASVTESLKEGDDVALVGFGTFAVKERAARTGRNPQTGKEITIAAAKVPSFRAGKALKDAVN

B1: 15 bp DNA (dsDNA)
DNA 1: CGGTCAGTTCAAGGC
DNA 2: GCCTTGAACTGACCG
On to B1, for which the binding signal in data set [1] stood at 2.8 ± 1 k10/k6 ratio.

B2: 38 bp DNA (dsDNA)
DNA 1: CGGTCAGTTCAAGCCCTTCTAAGTTTGTAGACACCAGC
DNA 2: GCTGGTGTCTACAAACTTAGAAGGGCTTGAACTGACCG
For B2, the binding result in data set [2] was “binds”.

The values are drawn from PMC3115508.
